Laboratory results taken from PMC8167854, “Transfer of stabilising mutations between different secondary active transporter families” (FEBS Open Bio, 2021).

B1: AtBOR1 M363Y (natural protein)
chain: not shown
notes: BOR1 borate transporter of Arabidopsis thaliana with the point mutation M363Y, made on the AtBOR1 WT gene; Expressed from pDDGFP-2 with a TEV-cleavable C-terminal yEGFP His-tag; tag removed with TEV protease before SEC; source: S. cerevisiae FGY217, purified in DDM (His-Trap, TEV cleavage, reverse IMAC, Superdex 200); not shown: yEGFP, C-terminal, cleaved; His-tag, C-terminal, cleaved
B2: Arabidopsis thaliana boron transporter 1 (AtBOR1), wild-type (natural protein)
chain: not shown
notes: BOR1 borate transporter of Arabidopsis thaliana (SLC4 family), full-length wild type; Expressed from pDDGFP-2 with a TEV-cleavable C-terminal yEGFP His-tag; also called WT AtBOR1; AtBOR1 WT; source: S. cerevisiae FGY217, purified in DDM (His-Trap, TEV cleavage, reverse IMAC, Superdex 200); not shown: yEGFP, C-terminal, cleaved; His-tag, C-terminal, cleaved
B3: AtBOR1 M363F (natural protein)
chain: not shown
notes: BOR1 borate transporter of Arabidopsis thaliana with the point mutation M363F, made on the AtBOR1 WT gene; Expressed from pDDGFP-2 with a TEV-cleavable C-terminal yEGFP His-tag; tag removed with TEV protease before SEC; source: S. cerevisiae FGY217, purified in DDM (His-Trap, TEV cleavage, reverse IMAC, Superdex 200); not shown: yEGFP, C-terminal, cleaved; His-tag, C-terminal, cleaved

Biological target: the molecule itself
Experiment: SDS/PAGE of SEC fractions, bands identified by mass spectrometry; protein purified in 0.03% DDM, eluted from Superdex 200 10/300 in 20 mM Tris/HCl pH 7.5, 150 mM NaCl; fractions on a 12% Tris-Glycine SDS/PAGE gel; monomer and dimer bands

Binding result, binds:
B1, B2, B3
